Assay results taken from publication PMC12753876 (2025).

B1: CRY1^(PHR WT) in pGADT7 (AD) [Arabidopsis thaliana] / HsFA3^WT in pGBKT7 (BD) [Arabidopsis thaliana] (parent complex)
chain 1: MSGSVSGCGSGGCSIVWFRRDLRVEDNPALAAAVRAGPVIALFVWAPEEEGHYHPGRVSRWWLKNSLAQLDSSLRSLGTCLITKRSTDSVASLLDVVKSTGASQIFFNHLYDPLSLVRDHRAKDVLTAQGIAVRSFNADLLYEPWEVTDELGRPFSMFAAFWERCLSMPYDPESPLLPPKKIISGDVSKCVADPLVFEDDSEKGSNALLARAWSPGWSNGDKALTTFINGPLLEYSKNRRKADSATTSFLSPHLHFGEVSVRKVFHLVRIKQVAWANEGNEAGEESVNLFLKSIGLREYSRYISFNHPYSHERPLLGHLKFFPWAVDENYFKAWRQGRTGYPLVDAGMRELWATGWLHDRIRVVVSSFFVKVLQLPWRWGMKYFWDTLLDADLESDALGWQYITGTLPDSREFDRIDNPQFEGYKFDPNGEYVRRWLPELSRLPTDWIHHPWNAPESVLQAAGIELGSNYPLPIVGLDEAKARLHEALSQMWQLEAASRAAIENGSEE
chain 2: not shown

Variants of: B1
Test: yeast two-hybrid (beta-galactosidase, Miller units); n=3; parent: 280; read off a plot

Variant	response [Miller Units]
chain 1 K332E	~210
chain 1 K332E, chain 1 R335E	~280
chain 1 R335E	~210

Variants of: B1
Test: as above
Remark: another data set of the same source

Variant	response [Miller Units]
chain 1 K332A, chain 1 R335A	~300

Variants of: B1
Test: as above
Remark: another data set of the same source

Variant	response [Miller Units]
chain 1 R211A, chain 1 R435A	~150
